Experiment [1] concerns the target CDCP1 on human cells (MCF10A KRASG12V, HPAC) (human) (UniProt Q9H5V8). The experiment can be described thus: cell-based or functional assay.
Experiment [2] concerns the target CD3 on the surface of T-cells (Jurkat reporter cells) (UniProt P07766). The experiment can be described thus: cell-based or functional assay.
Another experiment has as its target T1, Human CDCP1 (human, UniProt Q9H5V8 30-667, limits assumed).
T1 construct: also called CUB domain-containing protein 1; SIMA135
T1 sequence (looked up): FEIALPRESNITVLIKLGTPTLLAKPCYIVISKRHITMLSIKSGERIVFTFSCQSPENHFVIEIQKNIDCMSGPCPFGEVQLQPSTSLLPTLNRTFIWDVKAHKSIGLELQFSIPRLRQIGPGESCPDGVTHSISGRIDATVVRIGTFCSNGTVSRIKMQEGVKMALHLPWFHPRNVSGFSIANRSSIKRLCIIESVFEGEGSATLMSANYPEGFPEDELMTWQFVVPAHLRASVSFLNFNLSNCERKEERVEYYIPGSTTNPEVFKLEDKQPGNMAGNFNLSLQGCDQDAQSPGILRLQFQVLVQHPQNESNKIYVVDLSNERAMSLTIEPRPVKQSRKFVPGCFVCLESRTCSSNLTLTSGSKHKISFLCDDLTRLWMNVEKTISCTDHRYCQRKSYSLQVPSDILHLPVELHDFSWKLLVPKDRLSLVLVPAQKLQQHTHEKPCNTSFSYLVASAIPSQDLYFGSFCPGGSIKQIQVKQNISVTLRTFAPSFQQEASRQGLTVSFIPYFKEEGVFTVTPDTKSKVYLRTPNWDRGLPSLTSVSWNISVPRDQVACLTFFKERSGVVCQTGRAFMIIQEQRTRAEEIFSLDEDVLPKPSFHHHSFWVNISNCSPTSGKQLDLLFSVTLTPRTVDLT
The experiment can be described thus: ELISA; column head 'ELISA~EC50 Kd (nM)'.

The target in another experiment is T2, Cynomolgus monkey CDCP1 (Cynomolgus monkey, UniProt A0A2K5VLA8 30-667).
T2 construct: construct not described
T2 sequence: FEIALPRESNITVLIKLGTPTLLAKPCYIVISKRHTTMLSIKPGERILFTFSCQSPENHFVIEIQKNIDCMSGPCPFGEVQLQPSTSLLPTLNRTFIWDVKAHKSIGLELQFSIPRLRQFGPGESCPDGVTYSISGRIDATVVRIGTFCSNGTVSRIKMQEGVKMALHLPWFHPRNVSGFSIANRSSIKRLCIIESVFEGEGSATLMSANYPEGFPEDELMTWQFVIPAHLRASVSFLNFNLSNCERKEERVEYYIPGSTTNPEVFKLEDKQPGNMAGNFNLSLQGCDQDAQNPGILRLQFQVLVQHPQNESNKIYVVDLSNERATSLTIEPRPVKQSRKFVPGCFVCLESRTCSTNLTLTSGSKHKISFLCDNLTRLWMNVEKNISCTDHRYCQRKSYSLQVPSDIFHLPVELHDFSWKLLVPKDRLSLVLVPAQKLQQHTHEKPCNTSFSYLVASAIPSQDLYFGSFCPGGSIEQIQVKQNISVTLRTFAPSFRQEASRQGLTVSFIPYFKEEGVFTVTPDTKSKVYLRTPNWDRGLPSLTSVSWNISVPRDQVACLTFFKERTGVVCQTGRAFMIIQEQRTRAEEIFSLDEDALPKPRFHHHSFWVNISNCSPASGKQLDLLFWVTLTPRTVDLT
Kind of experiment: ELISA; column head 'ELISA~EC50 Kd (nM)'.

The next experiment concerns the target T3, CDCP1 aas 30-367 (human, UniProt Q9H5V8 30-367).
T3 construct: range 30-367
T3 sequence (looked up): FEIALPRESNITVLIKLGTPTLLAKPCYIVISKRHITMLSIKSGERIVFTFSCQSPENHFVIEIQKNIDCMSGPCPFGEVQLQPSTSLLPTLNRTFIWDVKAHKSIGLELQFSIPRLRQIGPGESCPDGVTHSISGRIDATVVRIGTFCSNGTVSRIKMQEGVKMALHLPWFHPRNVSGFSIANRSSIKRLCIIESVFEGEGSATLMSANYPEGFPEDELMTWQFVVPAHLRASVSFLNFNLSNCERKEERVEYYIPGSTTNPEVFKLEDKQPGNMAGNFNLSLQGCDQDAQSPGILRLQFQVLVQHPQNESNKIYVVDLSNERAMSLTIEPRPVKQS
Kind of experiment: ELISA, CDCP1 specificity on fragments. A general note: An ELISA detects its analyte on a solid surface through an enzyme-linked reagent.

The target in experiment [3] is T4, CDCP1 extracellular domain displayed on the surface of HEK293 (T-Rex-293) cells (human, UniProt Q9H5V8 30-667).
T4 construct: extracellular domain; also called CDCP1 Cell; not shown: fluorescent protein expression reporter and generic single-pass transmembrane domain
T4 sequence (looked up): T1 sequence (looked up)
Kind of experiment: flow cytometry, Fab on CDCP1 Cell. (A flow cytometer gives signals particle by particle.)

Numbering of substitutions follows the chain as printed.

CD3 on the surface of T-cells (Jurkat reporter cells), sequence (P07766 23-207): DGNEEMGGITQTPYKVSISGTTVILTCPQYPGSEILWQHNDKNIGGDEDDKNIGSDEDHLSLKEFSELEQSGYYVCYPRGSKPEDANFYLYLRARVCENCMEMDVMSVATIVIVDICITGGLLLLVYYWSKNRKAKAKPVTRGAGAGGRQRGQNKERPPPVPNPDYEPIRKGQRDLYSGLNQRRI

As to “CDCP1 BiTE (CDCP1-002 Fab genetically fused to OKT3 anti-CD3 scFv) (bispecific antibody)”, the T-cell activation (NFAT-dependent GFP reporter, flow cytometry) in co-culture with HPAC cells at 1 nM BiTE in experiment [1] and in experiment [2] was 75% each time.

B1: CDCP1-006 Fab (Fab, V domains shown)
VH: EVQLVESGGGLVQPGGSLRLSCAASGFNLYYSYMHWVRQAPGKGLEWVAYISPYSGSTYYADSVKGRFTISADTSKNTAYLQMNSLRAEDTAVYYCARYSYSALDYWGQGTLVTVSS
VL: DIQMTQSPSSLSASVGDRVTITCRASQSVSSAVAWYQQKPGKAPKLLIYSASSLYSGVPSRFSGSRSGTDFTLTISSLQPEDFATYYCQQSSWHYHLFTFGQGTKVEIK
notes: Tested as Fab
Turning to B1, the results for the EC50 with Human CDCP1 and with Cynomolgus monkey CDCP1 were 29.6 nM and 3.34 nM, respectively. Further, in the experiment with CDCP1 aas 30-367, the binding result is “no binding”. For the same molecule, the “Flow Cytometry (MFI)” value in experiment [3] was 52.3 MFI.

B2: CDCP1-004 Fab (Fab, V domains shown)
VH: EVQLVESGGGLVQPGGSLRLSCAASGFNISYYYMHWVRQAPGKGLEWVASIYSSYGYTSYADSVKGRFTISADTSKNTAYLQMNSLRAEDTAVYYCARVYYGFDYWGQGTLVTVSS
VL: DIQMTQSPSSLSASVGDRVTITCRASQSVSSAVAWYQQKPGKAPKLLIYSASSLYSGVPSRFSGSRSGTDFTLTISSLQPEDFATYYCQQSYYVYPITFGQGTKVEIK
notes: Tested as Fab
B2: the results for the EC50 with Human CDCP1 and with Cynomolgus monkey CDCP1 were 2.37 nM and 34.9 nM, respectively. Also, the “Flow Cytometry (MFI)” value in experiment [3] stood at 770 MFI.

B3: CDCP1-005 Fab (Fab, V domains shown)
VH: B2 VH with M34I, S53P, S54Y, Y57S, S59Y, V99A
VL: B2 VL with Y93W, V94S, Y95F
notes: Tested as Fab
As to B3, the “Flow Cytometry (MFI)” value in experiment [3] stood at 870 MFI.

B4: CDCP1-003 Fab (Fab, V domains shown)
VH: B2 VH with Y33S, Y52S, S53P, S54Y, Y55S, V99G, G102A, F103L
VL: B2 VL with S91Y, V94F, I97F
notes: Tested as Fab
Consider B4, for which the EC50 in the experiment with Human CDCP1 is 65.3 nM; with Cynomolgus monkey CDCP1, 666 nM. For the same molecule, the “Flow Cytometry (MFI)” value in experiment [3] is 180 MFI.

B5: CDCP1-002 Fab (Fab, V domains shown)
VH: B2 VH with I29L, M34I, Y55S, G56S, V99A
VL: B2 VL with V94Y
notes: Tested as Fab from a synthetic Fab-phage library; Used 89Zr-labeled for PET and 125I-labeled for Bmax; also called CDCP1-4A06; CDCP1 Fab
B5: the figures for the EC50 in the experiment with Human CDCP1 and in the experiment with Cynomolgus monkey CDCP1 were 0.651 nM and 19.6 nM, respectively. The “Flow Cytometry (MFI)” value in experiment [3] was determined as 1160 MFI.

B6: CDCP1-008 Fab (Fab, V domains shown)
VH: B2 VH with Y31S, S53P, S54Y, Y55S, S59Y, V99A, G102A, F103M
VL: B2 VL
notes: Tested as Fab
On to B6, for which the EC50 is 76.2 nM with Human CDCP1 and 97.1 nM in the experiment with Cynomolgus monkey CDCP1. For the same molecule, the “Flow Cytometry (MFI)” value in experiment [3] came out at 673 MFI.

B7: CDCP1-007 Fab (Fab, V domains shown)
VH: B2 VH with S30Y, Y31S, M34I, S53P, S54Y, V99A, F103M
VL: B2 VL with Y93F, V94Y, Y95W
notes: Tested as Fab
In the case of B7, the EC50 in the experiment with Human CDCP1 was 18 nM; with Cynomolgus monkey CDCP1, 22.4 nM. Further, the “Flow Cytometry (MFI)” value in experiment [3] turned out to be 2.33 MFI.

One may read the EC50 as the concentration that produces a half-maximal response.
